# Target: the molecule itself
# Assay: SEC-MALS
row,Protein,stoichiometry N
1,"CaKip3 NE-PT (neck extension and proximal tail; residues 444-707), His6-MBP fusion (domain or fragment, Candida albicans, UniProt A0A1D8PKA4 444-707, looked up) VGSYLKMITEQKQEIEELRARESKMVESTINKRKDLESKVFKILFESLESTRKAIAKQNQEKWKKYFILAKRKLLLSQKIETELVLEQRDDIDINSLSIASGNESESVFKIYDLCEQLISKIEYQLPQLESQYSQPTDLDYILEDSAMQTLKRLQDEEGWTEHHSAIYRQSIQSMKREVHTDLLLYSSILYDNLIHDLSIFFYIPREIGNFINNISNPTSLNEANQELLYNMTLGLENLLNGEFDSAMEHYAMDYMKNKVESEN",2
2,"CaKip3 MD-PT (motor domain, neck linker, neck extension and proximal tail domain; residues 1-707) (domain or fragment, Candida albicans, UniProt A0A1D8PKA4 1-707, looked up) MSYPNSLGSPATVTSTSVPTAKQSSISVAVRVRPFTEAESNRLVKIDNDDVFLGDGCLTSDNNNNNNNSNSNGNGNGNGSSAANSSGASTSRRAIFNTLGGLRKIINVVDDRMLIFDPPETNPLTKMQRNAFPNSFKGSRIREHRFVFDRLFDEDCTQDQVYRNTTQPLLDSVLDGYNATVFAYGATGCGKTHTISGTPEDPGVIFLTMKELYNRIEELKDTKIIDISLSYLEIYNETIRDLLNPMTQCKNLVIREDANNKISVSNLSRHRPNSVEEVMQLILEGNKNRTCSPTEANATSSRSHAVLQINVIQKDRTGDITEEHTFATLSIIDLAGSERAAATKNRGARLNEGANINKSLLALGNCINALCDPRRRNHVPYRDSKLTRLLKFSLGGNCKTVMIVCVSPSSQHYDETLNTLKYADRAKEIKTKLIRNQHNLDRHVGSYLKMITEQKQEIEELRARESKMVESTINKRKDLESKVFKILFESLESTRKAIAKQNQEKWKKYFILAKRKLLLSQKIETELVLEQRDDIDINSLSIASGNESESVFKIYDLCEQLISKIEYQLPQLESQYSQPTDLDYILEDSAMQTLKRLQDEEGWTEHHSAIYRQSIQSMKREVHTDLLLYSSILYDNLIHDLSIFFYIPREIGNFINNISNPTSLNEANQELLYNMTLGLENLLNGEFDSAMEHYAMDYMKNKVESEN",2
3,"CaKip3 PT (proximal tail only; residues 475-707), His6-MBP fusion (domain or fragment, Candida albicans, UniProt A0A1D8PKA4 475-707, looked up) KRKDLESKVFKILFESLESTRKAIAKQNQEKWKKYFILAKRKLLLSQKIETELVLEQRDDIDINSLSIASGNESESVFKIYDLCEQLISKIEYQLPQLESQYSQPTDLDYILEDSAMQTLKRLQDEEGWTEHHSAIYRQSIQSMKREVHTDLLLYSSILYDNLIHDLSIFFYIPREIGNFINNISNPTSLNEANQELLYNMTLGLENLLNGEFDSAMEHYAMDYMKNKVESEN",2

# Reference: article doi:10.1101/2024.09.05.611543 (bioRxiv, 2024)
